Test results as given in patent US8642834B2, “Methods for the identification of agents that inhibit mesenchymal-like tumor cells or their formation” (OSI Pharmaceuticals, LLC, priority 2009, dated 2014).

Assays:
Format in all cases: cell-based, human
[1] = test system: CFPAC1 cells; assay: Doubling time after ligand treatment; settings: after 7 day ligand treatment, versus untreated
Description: Cells were plated and treated with ligand for 7 days. On day 7, cells were counted and re-plated on 6 cm cell culture dishes. On days 3, 5, 7, 10 and 12, cells were trypsinized and counted to determine the total number of cells in the dish, in duplicate. Doubling time was calculated using the multiple time point method on the website www.doubling-time.com.

[2] = test system: CFPAC-1 cells; assay: MET/EMT reversion experiment (ligand withdrawal); settings: ligand 14 days, then removed; morphology and E-cadherin/vimentin immunoblot
Description: Cells were cultured in complete medium with and without ligand for 14 days, during which time the media and ligand treatment was replaced every 3-4 days. 3 Days prior to the first time point (Day 14), cells were trypsinised, counted and seeded into plastic 35 mm dishes at appropriate seeding densities for the first 3 collection time points. 3 Days prior to the last of the 3 collection time points, the procedure was repeated for the second 3 collection time points, and so on until all time points were collected. Ligand was removed from all cultures at Day 14. At the time of harvest, cells were harvested as described in the western blotting section above. All samples were micro-centrifuged and stored at −80° C. until the end of the experiment, at which time all samples were processed for western blotting.

[3] = test system: CFPAC-1 cells; assay: Induction of EMT by growth factors and cytokines, E-cadherin and vimentin immunoblotting; settings: CFPAC-1 cells treated 7 days with ligand
Description: The CFPAC1 cell line was cultured in DMEM media (Gibco #11960) supplemented with 10% FBS (Sigma), 2 mM L Glutamine (Gibco), at 37° C., 5% CO2. For 7 day treatments, cells were seeded on tissue culture plastic in complete growth media and allowed to attach overnight at cell densities that would provide approximately 60-80% confluence at end of experiment. Ligand and/or inhibitor was added the following day (Day 0) in complete growth media and incubated at 37° C., 5% CO2. Ligand source and concentrations used are as follows: [1] From R&D systems, SDF-1α (stromal derived factor-1 alpha) at 100 ng/ml, TRANCE (TNF-related activation induced cytokine) at 50 ng/ml, FGF1 (fibroblast growth factor acidic) at 10 ng/ml, FGF2 (fibroblast growth factor basic) at 10 ng/ml, BMP4 (bone morphogenetic protein 4) at 100 ng/ml, BMP7 (bone morphogenetic protein 7) at 100 ng/ml, IGF2 (insulin-like growth factor 2) at 100 ng/ml, OSM (Oncostatin M) at 100 ng/ml, NRG1 (Neuregulin-1) at 50 ng/ml, PDGFaa (Platelet derived growth factor a) at 50 ng/ml, PDGFbb (platelet derive growth factor b) at 30 ng/ml, Ang2 (Angiopoeitin 2) at 400 ng/ml, amphiregulin at 100 ng/ml, HMGB 1 (Human high-mobility group box 1 protein) at 50 ng/ml; [2] From Genscript, LIF (Leukemia inhibitory factor) at 20 ng/ml, GM-CSF (Granulocyte macrophage colony stimulating factor) at 25 ng/ml, M-CSF (Macrophage colony stimulating factor) at 50 ng/ml; [3] From Anaspec, PAR1 (Protease activated receptor 1 agonist) at 100 μM; PAR2 (Protease activated receptor 2 agonist; peptide SLIGKV-NH2, Cat. No. 60217-1) at 100 μM; PAR4 (Protease activated receptor […] agonist; peptide AYPGKF-NH2, Cat. No. 60218-1) at 100 μM; [4] From Peprotech, HGF (Hepatocyte Growth Factor) at 100 ng/ml; IL-31 (Interleukin-31) at 50 ng/ml, IL-33 (Interleukin-33) at 50 ng/ml, IL1-a (Interleukin-1 alpha) at 10 ng/ml, CTGF (Connective tissue growth factor) at 20 ng/ml, WISP1 (Wnt-1 inducible signaling pathway protein) at 20 ng/ml, PTHrP ([…] hormone-related protein) at 50 ng/ml, MCP1 (monocyte chemotactic protein-1) at 50 ng/ml; and [5] from Sigma, Fulvestrant at 1 μM. Fresh medium containing ligand and/or inhibitor was added 3-4 days after initial dose, and at Day 7 cells were harvested for western blot analysis.
Cells were harvested by washing once with PBS, and lysing on ice for 10 minutes with scraping (using a Cell Lifter, Corning Inc. #3008) in ice cold RIPA buffer (Sigma R0278) containing Protease inhibitor (Sigma P8340), Phosphatase inhibitors (Sigma P2850, P5726) and 200 μM Sodium Vanadate. Supernatents were micro-centrifuged at max speed, 4° C. for 10 minutes. Protein content was quantitated using the BCA method (Pierce #23225) and samples were normalized to total protein in Laemli buffer and heated at 100° C. for 10 minutes. SDS PAGE was run using a Bis-Tris gel system (Invitrogen NuPAGE) with MOPS buffer (Invitrogen NP0001), transferred onto nitrocellulose using the iBLOT system (Invitrogen) and blocked in PBS-T (0.1% Tween 20), 5% non-fat milk or BSA in guidance with primary Ab supplier requirements. All primary antibodies were incubated overnight at 4° C. in PBS-T (0.1% Tween 20) in either 5% non-fat milk or BSA, diluted to the following working dilutions: anti E Cadherin (Santa Cruz #sc-21791) 1:500 dilution; anti Vimentin (BD Biosciences #550513) 1:2000 dilution;); anti GAPDH HRP conjugate (Santa Cruz sc-25778) 1:1000 dilution; anti β-Actin (Sigma, A5441) 1:10,000 dilution. […]

B1: OSM: Oncostatin M from R&D systems, used at 100 ng/ml (protein, UniProt P13725 26-221, looked up)
Oncostatin-M: AAIGSCSKEYRVLLGQLQKQTDLMQDTSRLLDPYIRIQGLDVPKLREHCRERPGAFPSEETLRGLGRRGFLQTLNATLGCVLHRLADLEQRLPKAQDLERSGLNIEDLEKLQMARPNILGLRNNIYCMAQLLDNSDTAEPTKAGRGASQPPTPTPASDAFQRKLEGCRFLHGYHRFMHSVGRVFSKWGESPNRSRR
B1 was tested, and the “Increase of doubling time” value [1] was “approximately 50%”, the “Reversal of EMT upon withdrawal of ligand” value [2] was “can be reversed” and the “Induction of EMT (E-cadherin down, vimentin up)” value [3] was “most complete EMT”.
